# Laboratory results reported in patent US20050232926A1, “Antibodies specific for cancer associated antigen SM5-1 and uses thereof” (Oncomax Acquisition Corp., priority 2003, published 2005).
# B1: humanized anti-SM5-1 antibody (ReSM5-1) (antibody, V domains shown)
# VH: QVQLVQSGGGVVQPGRSLRLSCKASGYTFTSYVMHWVRQAPGKGLEWIGYIVPYNDGTKYNEKFKGRFTISSDKSKSTAFLQMDSLRPEDTAVYYCARGSRYDWYLDYWGQGTPVTVSS
# VL: NIMMTQSPSSLSASVGDRVTITCKSSQSVLYSSNQKNYLAWYQQTPGKAPKLLIYWASTRESGVPSRFSGSGSGTDYTFTISSLQPEDIATYYCHQYFSSYTFGQGTKLQITR
# B2: chSM5-1: mouse-human chimeric antibody with mSM5-1 variable regions (SEQ ID NO:3, 4) and human constant regions (antibody, V domains shown)
# VH: EVQLQQSGPELVKPGASVKMSCKASGYTFTSYVMHWVKQKPGQGLDWIGYIVPYNDGTKYNEKFKGKATLTSDKSSSTAYMELSRLTSEDSAVYYCVYGSRYDWYLDVWGAGTTVTVSS
# VL: NIMMTQSPSSLAVSAGEKVTMSCKSSQSVLYSSNQKNYLAWYQQKPGQSPKLLIYWASTRESGVPDRFTGSGSGTDFTLTISSVQAEDLAVYYCHQYFSSYTFGGGTKLEIKR
# modifications: human constant regions; Mus Musculus
# Tests used:
# QYC cells = assay: In vitro proliferation of QYC cells with chimeric and humanized antibody (PMS:MTS, seven days); format: cell-based, human; conditions: serial antibody dilutions, FIG. 6
# Method: The cell lines used in viability examination was QYC cells which were obtained from Shanghai International Joint Cancer Institute. The QYC cells was cultured in 25 cm^2 flask with RPMI-1640/DMEM (V:V=1:1, GIBCO) containing 10% FBS (GIBCO).
# The above cells were digested with 0.05% trypsin and in 0.02% EDTA, and cell number was counted and adjusted to 6×10^4/ml in RPMI-1640/DMEM culture medium containing 10% FCS.
# The assay was performed in 96-well plate. The anti-human SM5-1 humanized and chimeric antibody described above were diluted with RPMI-1640/DMEM containing 10% FCS. The antibody to be tested (20 mg/ml) was diluted to […] in serial dilution, with each dilution no more than 10-fold. The antibody were further diluted 1:2 serially with RPMI-1640/DMEM containing 10% FCS for fourteen serial concentrations in 96-well plate, leaving 100 μl/well. Cells (100 μl) were added into each well containing 200 μl various concentration of antibody or 200 μl of RPMI-1640/DMEM containing 10% FCS as control. In order to prevent edge effect of the plate, wells that were at the edge of the plate were not used for the assay but added 200 μl PBS. The plate was incubated at 37° C. with 7% CO2 for seven days.
# Color developing reagent PMS:MTS (1:20) (20 μl) was added into each well of the 96-well plate. The plate without the lid was then incubated for 3 h.
# The 96-well plate was read at OD490 nm. […]
# [1] = test system: human hepatocellular carcinoma cell line QYC; assay: Complement-dependent cytotoxicity (CDC), LDH release; format: cell-based; conditions: 5% normal human sera, 3-4 h, FIG. 8
# Source text: Antigen recognized by anti-SM5-1 is highly expressed on the surface of human hepatocellular carcinoma cell line QYC. With human complement in the culture fluid, the target cells bound with chimeric antibodies will be lysed by so-called complement dependent cell mediated cytotoxicity (CDC). When there is an over dose of complement (provided by fresh normal human sera), in a certain range, the degree of lysis is related to antibody concentration. Degree of lysis can be determined by detecting lactate dehydrogenase (LDH) released by the lysed cells.
# Cell line for bioactivity determination is QYC, which is without any pathogen. […]
# QYC cells in the logarithmic growth stage were taken and counted. […]
# 50 ul supernatant was transferred from each well to corresponding wells in a second 96-well plate, and 50 ul well-mixed LDH test kit reagent was added into the well of the second plate. […] OD was measured with 490 nm as detecting light wave length, and 630 nm as reference wave length.
# The results were analyzed with specific analysis software Select2.2 to make auto analysis and calculate standard curve line: horizontal axis stands for the concentration of the standard product and samples, vertical axis stands for optical adsorption, recovery equation as 4-parameter equation, resulting in a “s” curve line. Half effective dosage (ED50) of the standard product and samples were calculated. […]
# [2] = test system: human hepatocellular carcinoma cell line QYC; assay: Therapeutic effect in QYC-bearing nude mice; format: in vivo; conditions: 4 mg/kg/week tail vein, after 6 weeks, FIG. 9
# Method: Chimeric and humanized anti-SM5-1 monoclonal antibodies, and humanized and chimeric anti-CD3 antibodies were tested for their therapeutic effects in QYC bearing nude mice.
# Forty female nude mice were inoculated s.c with QYC. After seven weeks, tumor masses reached 0.5 cm in diameter. These mice were randomly divided into 5 groups: 8 mice for PBS group; 8 mice for non-related antibody, chimeric anti-human CD3 mAb, 4 mg/kg; 8 mice for humanized anti-human CD3 mAb, 4 mg/kg; 8 mice for anti-human SM5-1 chimeric mAb, 4 mg/kg; 8 mice for anti-human SM5-1 humanized mAb, 4 mg/kg.
# Four mAbs were diluted into final concentration 0.4 mg/ml with PBS. Mice were tail vein injected at 4 mg/kg/week through tail vein, with the control injected equal volume of PBS. According to body weight of nude mice, injection volume was about 250 ul for each nude mouse.
# After 6 weeks, size of the tumor mass was measured in each mouse and statistical analyzed. […] These antibodies may function via ADCC and/or CDC.
# SM5-1 antigen = assay: Affinity determination with BIAcore; format: binding, human
Molecule,in vitro proliferation of QYC cells (QYC cells),anti-neoplasm effect via CDC [1],size of the tumor mass [2],Kd (SM5-1 antigen)
B1,significantly inhibited in vitro proliferation of QYC cells,induced the apoptosis and inhibited the growth of tumor cells through the CDC pathway,effective in controlling the size of the tumor mass,9.31 nM
B2,significantly inhibited in vitro proliferation of QYC cells,induced the apoptosis and inhibited the growth of tumor cells through the CDC pathway,effective in controlling the size of the tumor mass,3.78 nM
